The text below walks through data of US20160237160A1, “ANTI-TWEAKR ANTIBODIES AND USES THEREOF” (BAYER PHARMA AKTIENGESELLSCHAFT, priority 2013, published 2016).

In this experiment the target is TWEAKR (TNFRSF12A, FN14), human, on tumor cell lines (human) (UniProt Q9NP84). Nature of the experiment: cell-based or functional assay.

Some results are limits rather than exact numbers.

Consider “recombinant human TWEAK (R&D, #1090-TW-025/CF) (ligand)”, for which the % Inhibition of proliferation, 786-O cells, 96h, 100 ng/ml stood at 12%; the % Inhibition of proliferation, A253 cells, 72h, 300 ng/ml is over 100%; the % Inhibition of proliferation, HT-29 cells, 24h, 300 ng/ml is 98%; the % Inhibition of proliferation, LOVO cells, 72h, 100 ng/ml amounted to 53%. In addition, the % Inhibition of proliferation, NCI-H1975 cells, 72h, 100 ng/ml was 56%; the % Inhibition of proliferation, SW480 cells, 72h, 100 ng/ml stood at 0%; the Fold induction of Caspase 3/7, 786-O cells, 300 ng/ml worked out at 1.45 fold; the Fold induction of Caspase 3/7, A253 cells, 300 ng/ml is 1.53 fold. Further, the Fold induction of Caspase 3/7, HT-29 cells, 300 ng/ml worked out at 2.31 fold; the Fold induction of Caspase 3/7, NCI-H322 cells, 100 ng/ml was found to be 1.39 fold; the Fold induction of Caspase 3/7, WiDr cells, 300 ng/ml was 1.22 fold.
